Results from patent US20160362487A1 (Regeneron, published 2016).

T1: human IL-33 (R&D Systems, #3625-IL-010/CF) (human, UniProt O95760 112-270)
T1 construct: Commercial recombinant protein; also called hIL-33; interleukin-33
T1 sequence (looked up): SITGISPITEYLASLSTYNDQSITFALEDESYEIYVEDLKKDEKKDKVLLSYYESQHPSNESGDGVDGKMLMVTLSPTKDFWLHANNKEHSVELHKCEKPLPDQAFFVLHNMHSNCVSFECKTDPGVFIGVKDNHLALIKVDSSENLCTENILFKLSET

T2: cynomolgus monkey IL-33 expressed with a C-terminal hexahistidine tag (cynomolgus monkey)
T2 construct: also called MfIL-33-6His; Mf-IL-33-6His
T2 chain: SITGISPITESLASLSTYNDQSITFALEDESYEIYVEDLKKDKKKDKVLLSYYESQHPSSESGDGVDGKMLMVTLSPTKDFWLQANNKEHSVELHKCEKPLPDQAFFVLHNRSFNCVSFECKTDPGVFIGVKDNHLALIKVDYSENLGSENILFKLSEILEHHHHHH


What was measured:
[1] = biological target: T1, human IL-33 (R&D Systems, …); experiment: SPR 25C pH7.4, mAb captured
Protocol: (§1) Equilibrium dissociation constants (KD values) for IL-33 binding to purified anti-IL-33 monoclonal antibodies were determined using a real-time surface plasmon resonance biosensor using a Biacore 4000 instrument. The Biacore sensor surface was first derivatized by amine coupling with either a polyclonal rabbit anti-mouse antibody (GE, # BR-1008-38) or with a monoclonal mouse anti-human Fc antibody (GE, # BR-1008-39) to capture anti-IL-33 monoclonal antibodies expressed with mouse or with human IgG4 constant regions, respectively. All Biacore binding studies were performed in 0.01M ADA pH 7.4, 0.15M NaCl, 3 mM EDTA, and 0.05% v/v Surfactant Tween-20 (ABS-ET running buffer). […] Association of either hIL-33 or MfIL-33-6His to the captured monoclonal antibody was monitored for 4 minutes and their dissociation in ABS-ET running buffer was monitored for 10 minutes. The effect of reduced pH on the binding of each anti-IL-33 antibody to either hIL-33 or MfIL-33-6His was studied using an in-line pH chase assay format in 0.01M ADA pH 6.0, 0.15M NaCl, 3 mM EDTA, and 0.05% v/v Surfactant Tween-20 (ABS-ET pH6 buffer). To achieve this, association of either hIL-33 or MfIL-33-6His to the captured monoclonal antibody was monitored for 4 minutes in ABS-ET running buffer. Following a 30 second dissociation of either hIL-33 or MfIL-33-6His in ABS-ET running buffer, ABS-ET pH6 buffer was injected for 3 minutes, and the analyte dissociation under the low-pH conditions was measured. All the binding kinetic experiments were performed at both 25° C. and 37° C. Kinetic association (kₐ) and dissociation (kd) constants were determined by fitting the real-time sensorgrams to a 1:1 binding model using Scrubber 2.0c curve fitting software. Binding dissociation equilibrium constants (KD) and dissociative half-lives (t½) were calculated from the kinetic rate constants as: […]

[2] = biological target: T2, cynomolgus monkey IL-33 expressed with …; experiment: SPR 25C pH7.4, mAb captured
Protocol: as §1

[3] = biological target: T1, human IL-33 (R&D Systems, …); experiment: cell-based or functional assay
[4] = biological target: T2, cynomolgus monkey IL-33 expressed with …; experiment: cell-based or functional assay
[5] = biological target: T1, human IL-33 (R&D Systems, …); experiment: BLI; hIL-33 pre-mixed with mAb-2 H1M9565N
Protocol: Binding competition between a panel of different anti-IL-33 monoclonal antibodies was determined using a real time, label-free bio-layer interferometry assay on an Octet® HTX biosensor (ForteBio, A Division of Pall Life Sciences). The experiment was performed at 25° C. using a buffer of 0.01M HEPES pH7.4, 0.15M NaCl, 0.05% v/v Surfactant Tween-20, and 0.1 mg/ml BSA (HBS-ET kinetics buffer) with the plate shaking at a speed of 1000 rpm. To assess whether two antibodies were able to compete with one another for binding to human IL-33, a pre-mix assay format was used where 100 nM of human IL-33 (R&D Systems; #3625-IL-010/CF) was pre-mixed with 500 nM of different anti-IL-33 monoclonal antibodies (subsequently referred to as mAb-2) for at least 2 hours prior to running the binding competition assay. […] Following the capture step, unoccupied anti-mouse Fc polyclonal antibody and anti-human Fc polyclonal antibody on the Octet biosensors were saturated by submerging them for 4 minutes into wells containing 200 μg/mL of a non-specific monoclonal antibody with a mouse Fc or with a human Fc, respectively. Finally, the Octet biosensors were immersed for 4 minutes into wells containing the pre-mixed samples of 100 nM of human IL-33 and 500 nM of mAb-2. At the end of each cycle, the non-covalently captured anti-IL-33 antibodies along with the bound pre-complex of human IL-33 and mAb-2 were removed from the biosensors using three alternate 20 second immersions into 10 mM HCl followed by submerging into HBS-ET kinetics buffer. The biosensors were washed in HBS-ET kinetics buffer in between every step of the experiment. The real-time binding response was monitored during the binding events, and the binding response (in units of nm) at the end of every step was recorded.

[6] = biological target: T2, cynomolgus monkey IL-33 expressed with …; experiment: BLI; captured MfIL-33-6His, mAb-1 step with Isotype control
Protocol: Binding competition between a panel of different anti-IL-33 monoclonal antibodies was determined using a real time, label-free bio-layer interferometry assay on an Octet® HTX biosensor (ForteBio, A Division of Pall Life Sciences). The experiment was performed at 25° C. using a buffer of 0.01M HEPES pH7.4, 0.15M NaCl, 3 mM EDTA, 0.05% v/v Surfactant Tween-20, and 0.1 mg/ml BSA (HBS-ET kinetics buffer) with the plate shaking at a speed of 1000 rpm. […] The antigen-captured biosensors were then saturated with a first anti-IL-33 monoclonal antibody (subsequently referred to as mAb-1) by immersion into wells containing 50 μg/mL solution of mAb-1 for 5 minutes. The biosensors were then dipped into wells containing a 50 μg/mL solution of a second anti-IL-33 monoclonal antibody (subsequently referred to as mAb-2) for 4 minutes. The biosensors were washed in HBS-ET kinetics buffer in between every step of the experiment. The real-time binding response was monitored during the experiment, and the maximum binding response for each binding step was recorded. The response of mAb-2 binding to MfIL-33-6His pre-complexed with mAb-1 was measured, and competitive/non-competitive behavior of different anti-IL-33 monoclonal antibodies with respect to each other was determined.

| Binder | Kd [1] [pM] | koff [1] [s⁻¹] | kon [1] [M⁻¹ s⁻¹] | t½ [1] [min] | Kd [2] [pM] | koff [2] [s⁻¹] | kon [2] [M⁻¹ s⁻¹] | t½ [2] [min] | IC50, inhibition of 10 pM hIL-33 activation of HEK293/hST2/NFkB-luciferase cells [3] [M] | IC50, inhibition of 5 pM MfIL-33-6His activation of HEK293/hST2/NFkB-luciferase cells [4] [M] | mAb-1 Binding to the Pre-complex of mAb-2 & hIL-33 [5] [nm] | mAb-2 Binding to the Pre-complex of mAb-1 & MfIL-33-6xHis [6] [nm] |
| --- | --- | --- | --- | --- | --- | --- | --- | --- | --- | --- | --- | --- |
| H4H9664P (antibody, human IgG4, V domains shown, Human IgG4 Fc (H4H)) VH: QVQLVESGGGVVQPGRSLRLSCAASGFTFSSYGLHWVRQSPGKGLEWVALISYDGSNKYYADSVKGRFTISRDNSKNTLYLQMNSLRPEDTAGYFCAKSLYTTSWYGGFDYWGQGTLVTVSS VL: DIQMTQSPSSVSASVGDRVTITCRASQGIRSWLAWYQQKPGKAPNLLIYAASSLQSGVPSRFSGSGSGTDFTLTISSLQPEDFATYYCQQANSFPPTFGPGTKVDIK | 757 | 0.000257 | 339000 | 45 | 11800 | 0.00165 | 140000 | 7 | 5e-11 | 2.6e-08 | 0.48 | 0.27 |
| H4H9666P (antibody, human IgG4, V domains shown, Human IgG4 Fc (H4H)) VH: QVQLVQSGAEVKKPGASVKVSCKASGYTFTSYGISWVRQAPGQGLEWMGWIRAYNGYTNYAQKFQGRVTMTTDTSTNTAYMELRTLNSDDTAVYYCARDRYSGSFHGNFDYWGQGTLVTVSS VL: DIQMTQSPSSVSASVGDRVTITCRASQGIFSWLAWYQQKPGKAPKVLIYAASNLESGVPSRFSGSGSGTDFTLTISSLQPEDFATYYCQQANSLPLTFGGGTKVEIK | 551 | 0.00028 | 508000 | 41 | 15900 | 0.00354 | 222000 | 3.3 | 3.5e-11 | 7.8e-08 | 0.56 | 0.28 |
| H4H9665P (antibody, human IgG4, V domains shown, Human IgG4 Fc (H4H)) VH: EVQLVESGGGLVQPGGSLRLSCAASGFTFSNYAMTWVRQAPGKGLEWVSTISGSGDNTYYADSVQGRFTISRGHSKNTLYLQMNSLRAEDTAVYYCAKPTYSRSWYGAFDFWGQGTMVTVSS VL: DIQMTQSPSSVSASVGDRVTITCRASQGISSWLAWYQQKPGKAPQLLIYAASRLQSGVPSRFWGSGSGTDFTLTISSLQPEDFATYYCQQANNFPFTFGPGTKVDIK | 533 | 0.000474 | 888000 | 24 | 1020 | 0.000566 | 557000 | 20 | 9e-11 | 6.6e-10 | 0.66 | 0.3 |

Stronger by Kd [1], values ahead:

| Kd [1] [pM] | koff [1] [s⁻¹] | kon [1] [M⁻¹ s⁻¹] | t½ [1] [min] | Kd [2] [pM] | koff [2] [s⁻¹] | kon [2] [M⁻¹ s⁻¹] | t½ [2] [min] | IC50, inhibition of 10 pM hIL-33 activation of HEK293/hST2/NFkB-luciferase cells [3] [M] | IC50, inhibition of 5 pM MfIL-33-6His activation of HEK293/hST2/NFkB-luciferase cells [4] [M] | mAb-1 Binding to the Pre-complex of mAb-2 & hIL-33 [5] [nm] | mAb-2 Binding to the Pre-complex of mAb-1 & MfIL-33-6xHis [6] [nm] | Binder |
| --- | --- | --- | --- | --- | --- | --- | --- | --- | --- | --- | --- | --- |
| 322 | 0.000224 | 696000 | 52 | 3490 | 0.00149 | 426000 | 8 | 3.5e-11 | 1.9e-08 | 0.53 | 0.26 | H4H9660P (antibody, human IgG4, V domains shown, Human IgG4 Fc (H4H)) VH: EVQLVESGGGLVQPGGSLRLSCAASGITLSSYGMSWVRQAPGKGLEWVASIFGSGGGPYYADSVKGRFTMSRDNSKNTLYLQMNSLRAEDTAVYYCAKDRYSGSYYGGFDYWGRGTLVTVSS VL: DIQMTQSPSSVSASVGDRVTITCRASQGITSWLAWYQQKPGKAPTLLIYAASSLQTGVPSRFSGSGSGTDFTLTISSLQPEHFATYYCQQANSFPPTFGGGTKVEIK |
| 308 | 0.00025 | 811000 | 46 | 1250 | 0.000442 | 353000 | 26 | 2e-11 | 1.5e-09 | 0.57 | 0.22 | H4H9662P (antibody, V domains shown, Human IgG4 Fc (H4H)) VH: EVQLVESGGGLVQPGGSLRLSCAASGFTFSSYALTWVRQAPGKGLEWVSFISGSGGRPFYADSVKGRFTISRDNSKNMLYLQMNSLRAEDTAIYYCAKSLYTTSWYGGFDSWGQGTLVTVSS VL: DIQMTQSPSSVSASVGDRVTITCRASQGVVSWLAWYQQKPGKAPKLLIYAASSLQSGVPSRFSGSGSGTDFTLTISSLQPEDFATYYCQQSNSFPFTLGPGTKVDIK |
| 305 | 0.000414 | 1.36e+06 | 28 | 1060 | 0.000925 | 869000 | 12 | 1.3e-10 | 2.7e-09 | 0.54 | 0.23 | H4H9663P (antibody, human IgG4, V domains shown, Human IgG4 Fc (H4H)) VH: QVQLVQSGAEVKKPGASVKVSCKASGYTFTGHYMYWMRQAPGQGLEWMGWINPNSGGTNYAQKFQDRVTMTRDTSISTAYMELSRLRSDDTAVYYCARGRYGSSWYGGFEYWGQGTLVTVSS VL: DIQMTQSPSSVSASVGDRVTITCRASQGITSWLAWYQQKPGKAPNLLIYAAASLQSGVPSRFSGSGSGTDFTLTISSLQPEDFTTYYCQQAYSLPLTFGGGTKVEIK |
